Measurements as given in publication PMC7442819, “Taf14 recognizes a common motif in transcriptional machineries and facilitates their clustering by phase separation” (Nature Communications, 2020).

B1: Sth1EBM (Sth1_(1183–1240)) [Saccharomyces cerevisiae] / Taf14ET (Taf14_(174–244)) [Saccharomyces cerevisiae] (parent)
chain 1: EVKSSSVEIINGSESKKKKPKLTVKIKLNKTTVLENNDGKRAEEKPESKSPAKKTAAK
chain 2: KGSVDLEKLAFGLTKLNEDDLVGVVQMVTDNKTPEMNVTNNVEEGEFIIDLYSLPEGLLKSLWDYVKKNTE
B2: Ino80_(368–390) [Saccharomyces cerevisiae] / Taf14ET (Taf14_(174–244)) [Saccharomyces cerevisiae] (parent)
chain 1: DSKLNIKITLKQYHVKRLKKLIN
chain 2: B1 chain 2
B3: Snf5_(771–800) [Saccharomyces cerevisiae] / Taf14ET (Taf14_(174–244)) [Saccharomyces cerevisiae] (parent)
chain 1: SPPCYIIDHIPGHSLLLSIKLPGKVNTKEE
chain 2: B1 chain 2

Variants of: B1
Assay: ITC
Conditions: with Taf14ET (Taf14_(174–244)) [Saccharomyces cerevisiae]

Going from chain 1 L28A to chain 1 L22A, the screen value rises from 5.27 kcal/mol to 7.23 kcal/mol.

chain 1 V24A was tested, and the screen value was 6.7 kcal/mol.

Same assay, conditions: with Sth1EBM (Sth1_(1183–1240)) [Saccharomyces cerevisiae]

Compared with chain 2 I49R, chain 2 F47R is higher in screen value: 1.21 kcal/mol for the first, 5.99 kcal/mol for the second.

chain 2 F47A was tested, and the screen value was 8.16 kcal/mol.

Variants of: B2
Assay: ITC
Conditions: with Taf14ET (Taf14_(174–244)) [Saccharomyces cerevisiae]

First: chain 1 I6A
Second: chain 1 L10A
The screen value of the first is higher: 4.41 kcal/mol for the first, 3.42 kcal/mol for the second.

Variants of: B3
Assay: ITC
Conditions: with Taf14ET (Taf14_(174–244)) [Saccharomyces cerevisiae]

Compared with chain 1 I19A, chain 1 L17A is higher in screen value: 0.52 kcal/mol for the first, 0.55 kcal/mol for the second.
